Data taken from the supplement of paper PMC9732359.
± gives the uncertainty stated by the source.

Assay: protein stability index of a GFP-peptide fusion (yeast GPS) (PSI 1-4); higher = more stable; sorted into four equal gates, so the index is relative within each strain
Method in brief: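 Each library plasmid carries Cherry plus GFP with a tiled 17-residue yeast protein peptide fused downstream, and the pooled library was carried in yeast. Mid-log cultures in leucine-free medium were sorted into four equal gates by GFP/Cherry ratio. Reads from Illumina sequencing of PCR-amplified plasmids from each gate were assigned to strains by barcodes. Per peptide, the protein stability index was computed as the summed products of gate read frequency and gate number.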

Sequence | protein stability index (doa10∆) | protein stability index (pdr5∆) | protein stability index (san1∆) | protein stability index (ubr1∆)
RFKVVKVSGVSLLALWK [RPS23A] | 2.55 ± 0.22 | 1.59 ± 0.14 | 1.71 ± 0.14 | 1.81 ± 0.14
RFQKCFPPGVIGIDEGS [RPC40] | 2.15 ± 0.11 | 2.15 ± 0.22 |  | 2.43 ± 0.18
RFVIWTEAAFTKLDQVW [RPL4A] | 3.18 ± 0.11 | 2.39 ± 0.096 | 2.28 ± 0.24 | 2.39 ± 0.13
RGFFDILSLATEGCIGL [MCD1] | 2.87 ± 0.1 | 3.03 ± 0.057 | 2.52 ± 0.092 | 2.7 ± 0.063
RGGVKRISGLIYEEVRA [HHF1] | 3.35 ± 0.13 | 3.13 ± 0.2 | 3.15 ± 0.11 | 
RGKKGLKKKVVDPFTRK [RPS1B] | 3.73 ± 0.15 | 3.34 ± 0.082 | 3.35 ± 0.074 | 3.27 ± 0.088
RGNIKVMFATNRPNTLD [RPT1] | 2.91 ± 0.079 | 3.05 ± 0.088 | 3.02 ± 0.063 | 2.98 ± 0.085
RGRGRGRGRGRGRPPKA [SNF2] | 3.22 ± 0.075 | 3.2 ± 0.066 | 3.37 ± 0.041 | 3.27 ± 0.06
RGRPPKARNGLDYVRTP [SNF2] | 1.52 ± 0.096 | 1.67 ± 0.087 | 2.41 ± 0.13 | 3.09 ± 0.074
RGVDAGKGNTFEKVGSH [RPN14] | 2.71 ± 0.24 | 2.98 ± 0.17 | 3.67 ± 0.11 | 3.33 ± 0.12
RHLVNRGREEAASFKKL [PRE10] | 3.07 ± 0.059 | 3.2 ± 0.1 | 3 ± 0.084 | 2.85 ± 0.089
RHSGKVYPITLSTDATS [UBP6] | 1.98 ± 0.072 | 2.76 ± 0.066 | 2.74 ± 0.057 | 2.02 ± 0.045
RIHAKNFEAALFAKSSS [GAL11] | 2.67 ± 0.086 | 2.54 ± 0.072 | 2.74 ± 0.099 | 2.56 ± 0.047
RIKITANNNMNDELVEL [GRR1] | 2.35 ± 0.051 | 2.41 ± 0.053 | 2.33 ± 0.062 | 2.71 ± 0.041
RIMSTRCMMAAQYFYSG [DIS3] | 1.67 ± 0.06 | 1.95 ± 0.058 | 1.58 ± 0.079 | 1.77 ± 0.04
RIQLMNDFTTKLINIKK [MED1] | 2.89 ± 0.081 | 2.81 ± 0.099 | 2.84 ± 0.11 | 2.97 ± 0.086
RIVGSELIQKYLGDGPR [RPT2] | 2.21 ± 0.14 | 3.14 ± 0.16 | 3.33 ± 0.27 | 3.11 ± 0.13
RIYDREPTVRIQAVFCL [YCG1] | 2.47 ± 0.11 | 1.72 ± 0.15 | 1.61 ± 0.21 | 2.39 ± 0.1
RKINLFYLYMLVQKFGG [SWI1] | 1.59 ± 0.099 | 1.23 ± 0.048 | 1.16 ± 0.18 | 1.08 ± 0.072
RKLAVERAGHLLCDKAQ [PRE5] | 3.47 ± 0.15 | 3.18 ± 0.11 | 3.12 ± 0.072 | 3.37 ± 0.14
RKNFKMGPLYQNFAEFM [IRR1] | 1.33 ± 0.037 | 1.54 ± 0.06 | 1.72 ± 0.078 | 1.67 ± 0.038
RKQIDETQVLVSTPEKW [BRR2] | 2.07 ± 0.052 | 2.46 ± 0.058 | 2.31 ± 0.055 | 2.77 ± 0.028
RKRHQRALKVRNAQAQR [RPS6A] | 3.04 ± 0.14 | 2.96 ± 0.1 | 2.73 ± 0.073 | 2.96 ± 0.13
RKWVIFITKHLPLLILE [NUT1] | 1.7 ± 0.067 | 1.25 ± 0.045 | 1.21 ± 0.1 | 1.2 ± 0.03
RLAEVNLKDLNNVKQMV [RPO21] | 2.77 ± 0.26 |  | 2.9 ± 0.25 | 3.08 ± 0.18

Sequence | protein stability index (doa10∆) | protein stability index (pdr5∆) | protein stability index (san1∆) | protein stability index (ubr1∆)
RLDSYKVIEQPITSETA [RPL25] | 1.94 ± 0.055 | 2.31 ± 0.079 | 2.31 ± 0.079 | 2.5 ± 0.067
RLELPVDFQNDLKDILE [BRR2] | 2.83 ± 0.14 | 3.09 ± 0.084 | 2.78 ± 0.061 | 2.81 ± 0.052
RLERRINLTKVTQKDIC [CSI1] | 2.88 ± 0.079 | 2.82 ± 0.13 | 3.18 ± 0.065 | 3.29 ± 0.12
RLGDLGVIDDSFDVAIS [SMC4] | 2.85 ± 0.14 | 2 ± 0.14 | 1.23 ± 0.25 | 1.98 ± 0.067
RLGSKKLVEIIWNDVVY [YJL039C/NUP192] | 3.4 ± 0.17 | 3.43 ± 0.12 | 3.46 ± 0.082 | 3.35 ± 0.08
RLKDVEWVKLHRLLQRA [RMP1] | 3.16 ± 0.085 | 3.13 ± 0.093 | 3.24 ± 0.06 | 3.02 ± 0.079
RLKEKGSRVLIFSQMSR [ISW2] | 1.67 ± 0.056 | 2.19 ± 0.066 | 1.53 ± 0.11 | 2.06 ± 0.057
RLLSALGPRGVSITPGK [SRP21] | 2.97 ± 0.078 | 3.04 ± 0.074 | 3.29 ± 0.078 | 2.93 ± 0.054
RLNNVFVIGEQGKPYIS [RPS4A] | 2.66 ± 0.11 | 3.02 ± 0.094 | 3.1 ± 0.11 | 2.12 ± 0.057
RLPHQFRPIEIFTDFLP [RRP42] | 1.86 ± 0.068 | 1.96 ± 0.07 | 2.03 ± 0.078 | 2.21 ± 0.066
RLPVSEDTNTKPLFDFG [YOR098C/NUP1] | 2.76 ± 0.13 | 2.76 ± 0.12 | 1.93 ± 0.23 | 3.08 ± 0.13
RLTFKPWVVYLQILAML [YMR129W/POM152] | 1.23 ± 0.07 | 1.22 ± 0.06 | 1.1 ± 0.11 | 1.05 ± 0.049
RLTKQAFDWVLSNIEAQ [RPO21] | 3.2 ± 0.12 | 2.93 ± 0.12 | 3.19 ± 0.091 | 2.8 ± 0.088
RLTRLWIKNEQERQRQI [PRP8] | 2.42 ± 0.14 | 2.56 ± 0.26 |  | 
RLYVKGKHLSYQRSKRV [RPL33A] | 2.1 ± 0.063 | 1.75 ± 0.046 | 1.67 ± 0.094 | 2.46 ± 0.065
RMAKYLNNTHVISSGPL [RPC53] | 2.96 ± 0.13 | 2.91 ± 0.16 | 2.74 ± 0.074 | 2.47 ± 0.069
RMERIKDHLLLEEEFVS [RPT2] | 2.24 ± 0.12 | 2.22 ± 0.097 | 2.09 ± 0.13 | 2.23 ± 0.1
RMLLNLCKSATTKMWPT [BRR2] | 1.47 ± 0.068 | 1.79 ± 0.1 | 1.7 ± 0.12 | 1.99 ± 0.069
RMLSSILDINVSSSKNK [SWP82] | 2.71 ± 0.051 | 2.9 ± 0.051 | 2.49 ± 0.059 | 2.61 ± 0.032
RNDSTVNDSVISAPSME [BRN1] | 2.71 ± 0.085 | 2.95 ± 0.083 | 2.78 ± 0.061 | 2.96 ± 0.061
RNEDARRNLRYGDRMKL [RPO31] | 3.37 ± 0.096 | 3.38 ± 0.084 | 3.21 ± 0.08 | 3.38 ± 0.065
RNEKRMFLEFQSTQTDL [SMC2] | 2.53 ± 0.19 | 2.48 ± 0.19 | 3.24 ± 0.14 | 2.61 ± 0.12
RNLNNLKQENAYLLIRR [RPB8] | 3.14 ± 0.072 | 3.16 ± 0.084 | 3.15 ± 0.071 | 3 ± 0.054
RNNVMLLIATNLKEYNK [SRB8] | 2.44 ± 0.11 | 2.11 ± 0.099 | 2.74 ± 0.081 | 2.21 ± 0.072
RNSKLLNTKSIQIDEET [MCD1] | 3.21 ± 0.23 | 2.63 ± 0.084 | 3.18 ± 0.061 | 3.33 ± 0.12
